How the values were obtained:
[1] = molecular target: human GLP-1R on HEK293-GLP-1R-CRE cells (human) (UniProt P43220)
[2] = molecular target: GLP-1R on cAMP Hunter CHO cells (UniProt P43220)
Chain of GLP-1R on cAMP Hunter CHO cells (P43220 24-463): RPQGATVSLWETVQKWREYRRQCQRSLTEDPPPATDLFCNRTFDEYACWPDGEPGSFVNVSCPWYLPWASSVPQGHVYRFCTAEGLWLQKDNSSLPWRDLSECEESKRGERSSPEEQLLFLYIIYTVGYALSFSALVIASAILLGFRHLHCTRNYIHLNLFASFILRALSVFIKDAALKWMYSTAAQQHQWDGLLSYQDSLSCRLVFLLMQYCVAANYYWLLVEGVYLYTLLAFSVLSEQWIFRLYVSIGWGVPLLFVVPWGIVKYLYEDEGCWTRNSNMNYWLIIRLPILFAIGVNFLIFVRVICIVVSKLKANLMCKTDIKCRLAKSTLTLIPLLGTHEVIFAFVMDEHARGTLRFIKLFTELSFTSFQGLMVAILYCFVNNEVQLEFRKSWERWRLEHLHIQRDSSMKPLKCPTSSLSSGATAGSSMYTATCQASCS

Chain of human GLP-1R on HEK293-GLP-1R-CRE cells (human) (P43220 24-463): as above

Row | Substance | EC50, CRE luciferase reporter assay in HEK293-GLP-1R-CRE cells [1] | EC50, intracellular cAMP (HTRF) assay in cAMP Hunter CHO cells expressing GLP-1R [2]
1 | exenatide (Ex-4) (from UniProt P26349 48-87) (peptide) | 0.037 nM | 0.111 nM
2 | Semaglutide (peptide) | 0.024 nM | 0.21 nM

— article PMC7321126, “Recombinant Expression and Stapling of a Novel Long-Acting GLP-1R Peptide Agonist” (Molecules, 2020)
